The record followed here is article PMC10382551, “Affinity-matured homotypic interactions induce spectrum of PfCSP structures that influence protection from malaria infection” (Nature Communications, 2023).

T1: NPNA4 peptide (Plasmodium falciparum (isolate 3D7)., not fully specified)
T1 construct: source: synthetic peptide (InnoPep Inc, purity >=97%)
T1 chain: NPNANPNANPNANPNA

T2: NPNA8 peptide (Plasmodium falciparum (isolate 3D7)., not fully specified)
T2 construct: source: synthetic peptide (InnoPep Inc, purity >=97%)
T2 chain: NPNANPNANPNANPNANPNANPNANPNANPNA

T3: NPNA4 peptide (Plasmodium falciparum (isolate 3D7)., not fully specified)
T3 construct: source: synthetic peptide (InnoPep Inc)
T3 chain: NPNANPNANPNANPNA

T4: NPNA8 peptide (Plasmodium falciparum (isolate 3D7)., not fully specified)
T4 construct: source: synthetic peptide (InnoPep Inc)
T4 chain: T2 chain

B1: 337 Fab (Fab, V domains shown)
VH: QVQLVESGGGVVQPGRSLRLSCAASGFSFSTYGMHWVRQAPGKGLEWVALIWHDGSKKFYSESVRGRFTISRDNSMDTLYLQMSSLRAEDTAVYYCARDGADYFDSTGGAFDIWGQGTMVIVSS
VL: EIVMTQSPATLSVSPGERATLSCRASQSVSSNLAWYQQKPGQAPRLLIYGASTRATGIPARFSGSGSGTEFTLTISSLQSEDFATYYCQQYKTWWTFGQGTKVEIK
notes: source: ExpiCHO cells, purified (mAb Select PrismA or Capture Select, SEC)
B2: 227 Fab (Fab, V domains shown)
VH: QVQLVQSGGGVVQPGRSLRLSCVTSGFTFPAFGMHWVRQAPGKGLEWVAVIWYDGSKKYYADSVRGRFTISRDNSRNTLYLQMHSLRAEDTAVYYCARVKNYESSGYSQCLDYWGQGVLVTVAS
VL: QSVLTQPPSVSGAPGQRVTISCTGSSSNIGAGYDVHWYQQLPGTAPKLLIYGNGNRPSGVPDRFSGSKSGTSVSLAITGLQAEDEADYYCQSYDSSLSAFVFGTGTKVTVL
notes: as for B1
B3: 311 Fab (Fab, V domains shown)
VH: QVQLVESGGGVVPPGRSLRLSCATSGFTFSNYGMHWVRQAPGKGLEWVAIIWYDGSRNFYAASVEGRFTISRDNSKNTLYLQMNSLRVEDTAVYYCARAAYYDTSGYGDYWGQGTLVTVSS
VL: QSVLTQPPSVSGAPGQTVTISCTGGSSNIGAGYDVHWYQQLPGTAPKLLIYGNINRPSGVPDRFSGSKSGTSASLAITGLQAEDEADYYCQSYDRRLSGSWVFGGGTKLTVL
notes: as for B1
B4: 356R Fab (Fab, V domains shown)
VH: QVQLVESGGGVVQPGRSLRLSCAASGFTFSSYGMHWVRQTPGKGLEWVAVIWHDGSNKFYADSVKGRFTISRDNSKNMIYLQMNSLRVEDTAIYYCARDSLFYDHDNSGYYGYWGQGTLVTVSS
VL: EIVMTQSPATVSVSPGERATLSCRASQSVTSKLAWYQQKPGQAPRLLIYGASTRATGIPARFSGSGSGTEFTLTISSLQSEDFAVYFCQQYNNGFTFGPGTKVDFK
notes: also called Fab356R; germline-reverted 356; source: ExpiCHO cells, purified (mAb Select PrismA or Capture Select, SEC)
B5: 356 Fab (Fab, V domains shown)
VH: B4 VH with S30R, S31N, Y32F, K65E
VL: B4 VL with E1Q, Q27R
notes: as for B1
B6: 239 Fab (Fab, V domains shown)
VH: QVQLVESGGGVVQPGRSLRLSCAASRLTFRNFGMHWVRQTPGKGLEWVAVIWHDGSNKFYADSVEGRFTISRDNSKNTLYLQMNSLRDEDTAIYYCAKDWGGASDRVFDYWGRGTLVIVSS
VL: DIQMTQSPSTLSASVGDRVTITCRASQSVSTSLAWYQQKPGKAPNLLIYQASTLYRGVPSRFSGSGSGTEFTLTIGSLQPDDFATYYCQHYNSYSRITFGQGTRLEIK
notes: as for B1
B7: 334 Fab (Fab, V domains shown)
VH: QVQLVESGGGVVQPGRSLTLSCAASGFTFSNYGMHWVRQTPGKGLAWVAIIWYDGSKTYYEDSVKGRFTISRDNSKNTLYLQMNSLRVDDTAVYYCARVRHSSSRHGSAFDLWGQGTLVTVSS
VL: VIQMTQSPSTLSASVGDRVTITCRASQSVSTWLAWYQQKPGQGPKLLIYEASSLESGVPSRFSGSGSGTEFTLTISSLQPDDFATYYCQQYNSYSFWTFGQGTKVEIK
notes: as for B1
B8: 337 Fab (Fab, V domains shown)
VH: B1 VH
VL: B1 VL
notes: also called mAb 337; source: ExpiCHO cells, purified (mAb Select PrismA or Capture Select, SEC)
B9: 364 Fab (Fab, V domains shown)
VH: QVQLVESGGGVVQPGGSLRLSCAASGFTFSGYGMHWVRQVPGKGLEWVAIIWFDGSQKYYADSVQGRFTISRDNSKKTLFLRMNSLRAEDTAVYYCAKVHDDEPTQDYWGQGTLVTVSS
VL: DIQMTQSPSTLSASVGDRVTITCRASQGISTSLAWYQQKPGKAPKLLIYKASSLESGVPSRFSGSGSGTEFTLTITSLQPEDFATYYCQQYKRYWTFGQGTKVEIK
notes: also called mAb 364; source: ExpiCHO cells, purified (mAb Select PrismA or Capture Select, SEC)
B10: 227 Fab (Fab, V domains shown)
VH: B2 VH
VL: B2 VL
notes: also called mAb 227; source: ExpiCHO cells, purified (mAb Select PrismA or Capture Select, SEC)
B11: 311 Fab (Fab, V domains shown)
VH: B3 VH
VL: B3 VL
notes: also called mAb 311; source: ExpiCHO cells, purified (mAb Select PrismA or Capture Select, SEC)
B12: 311R Fab (Fab, V domains shown)
VH: B3 VH with N31S, R57N, N58K, E65K
VL: B3 VL with R95S, R96S
notes: also called germline-reverted 311; source: ExpiCHO cells, purified (mAb Select PrismA or Capture Select, SEC)
B13: 356 Fab (Fab, V domains shown)
VH: B4 VH with S30R, S31N, Y32F, K65E
VL: B4 VL with E1Q, Q27R
notes: also called mAb 356; source: ExpiCHO cells, purified (mAb Select PrismA or Capture Select, SEC)
B14: 356R Fab (Fab, V domains shown)
VH: B4 VH
VL: B4 VL
notes: also called germline-reverted 356; source: ExpiCHO cells, purified (mAb Select PrismA or Capture Select, SEC)
B15: 239 Fab (Fab, V domains shown)
VH: B6 VH
VL: B6 VL
notes: also called mAb 239; source: ExpiCHO cells, purified (mAb Select PrismA or Capture Select, SEC)
B16: 239R Fab (Fab, V domains shown)
VH: B6 VH with R30S, N31S, F32Y, E65K
VL: B6 VL with R56T
notes: also called germline-reverted 239; source: ExpiCHO cells, purified (mAb Select PrismA or Capture Select, SEC)
B17: 334 Fab (Fab, V domains shown)
VH: B7 VH
VL: B7 VL
notes: also called mAb 334; source: ExpiCHO cells, purified (mAb Select PrismA or Capture Select, SEC)

Where a chain is given by its changes, count along the chain named. Ends that are not written are not given here.

One test deals with T1, NPNA4 peptide. Put plainly: BLI. The note with it: both partners purified.
The molecule B1 had a dissociation constant (Kd) of 36.9 nM.

In turn, B2 had a Kd of 46.3 nM.

B3 came in with a Kd of 212 nM.

Take B4: the affinity, expressed as Kd, was 65 nM.

In turn, B5 had a Kd of 123 nM.

The molecule B6 returned a Kd of 44.7 nM.

On to B7, for which the equilibrium dissociation constant (Kd) came to 49.9 nM.

A further test addresses T2, NPNA8 peptide. Put plainly: BLI. The note with it: both partners purified.
B1 showed an equilibrium dissociation constant (Kd) of 39.4 nM.

B2: the Kd was found to be 23.7 nM.

Take B3: the Kd worked out at 6.11 nM.

B4 registered a Kd of 124 nM.

The molecule B5 yielded a Kd of 6.35 nM.

Molecule B6 gave an equilibrium dissociation constant (Kd) of 7.22 nM.

For B7, the equilibrium dissociation constant (Kd) was 22.4 nM.

Another test has as its target T3, NPNA4 peptide. Nature of the test: BLI. The note with it: both partners purified.
The molecule B8 gave a Kd of 36.9 nM, a koff of 0.007 s⁻¹ and an association rate constant (kon) of 130000 M⁻¹ s⁻¹.

Consider B9, for which the affinity, expressed as Kd, was 260 nM; the off-rate (koff) turned out to be 0.0027 s⁻¹; the kon stood at 43000 M⁻¹ s⁻¹.

Turning to B10, the Kd turned out to be 37.5 nM, the koff turned out to be 0.0058 s⁻¹ and the on-rate constant (kon) was determined as 130000 M⁻¹ s⁻¹.

B11 displayed an equilibrium dissociation constant (Kd) of 212 nM, a koff of 0.0041 s⁻¹ and an association rate constant (kon) of 27000 M⁻¹ s⁻¹.

As to B12, the equilibrium dissociation constant (Kd) amounted to 67.4 nM, the off-rate (koff) turned out to be 0.0088 s⁻¹ and the kon was determined as 71000 M⁻¹ s⁻¹.

B13: the affinity, expressed as Kd, was 123 nM; the off-rate constant (koff) worked out at 0.013 s⁻¹; the on-rate constant (kon) was 80000 M⁻¹ s⁻¹.

Molecule B14 had an equilibrium dissociation constant (Kd) of 79 nM, a dissociation rate constant (koff) of 0.03 s⁻¹ and an association rate constant (kon) of 560000 M⁻¹ s⁻¹.

On to B15, for which the Kd was determined as 44.7 nM, the off-rate constant (koff) worked out at 0.0063 s⁻¹ and the association rate constant (kon) was 110000 M⁻¹ s⁻¹.

Consider B16, for which the Kd turned out to be 165 nM, the koff is 0.033 s⁻¹ and the kon was found to be 410000 M⁻¹ s⁻¹.

In the case of B17, the Kd is 49.9 nM, the koff was 0.0021 s⁻¹ and the kon came to 53000 M⁻¹ s⁻¹.

For a further test, the target named is T4, NPNA8 peptide. Nature of the test: BLI. The note with it: both partners purified.
Regarding B8, the dissociation constant (Kd) came to 39.4 nM, the off-rate constant (koff) was 0.0035 s⁻¹ and the kon came out at 66000 M⁻¹ s⁻¹.

In turn, B9 had a Kd of 4.9 nM, a koff of 0.00027 s⁻¹ and a kon of 65000 M⁻¹ s⁻¹.

The molecule B10 registered an equilibrium dissociation constant (Kd) of 80.3 nM, a dissociation rate constant (koff) of 0.0035 s⁻¹ and a kon of 40000 M⁻¹ s⁻¹.

The molecule B11 returned an equilibrium dissociation constant (Kd) of 6.1 nM, a koff of 0.00025 s⁻¹ and an on-rate (kon) of 66000 M⁻¹ s⁻¹.

B12 displayed a Kd of 211 nM, a koff of 0.0051 s⁻¹ and a kon of 71000 M⁻¹ s⁻¹.

B13: the Kd was 6.4 nM, the koff stood at 0.00056 s⁻¹ and the kon was 87000 M⁻¹ s⁻¹.

B14: the dissociation constant Kd is 124 nM, the koff came out at 0.017 s⁻¹ and the kon is 79000 M⁻¹ s⁻¹.

B15 had a Kd of 7.2 nM, a koff of 0.00056 s⁻¹ and an association rate constant (kon) of 83000 M⁻¹ s⁻¹.

B16: binding was put at a Kd of 205 nM, the koff worked out at 0.022 s⁻¹ and the association rate constant (kon) was determined as 120000 M⁻¹ s⁻¹.

B17 yielded a Kd of 22.4 nM, a koff of 0.0013 s⁻¹ and an association rate constant (kon) of 52000 M⁻¹ s⁻¹.

The term Kd denotes a measure of binding affinity in units of concentration. A higher Kd goes with a looser complex. For orientation: koff means the rate constant with which the complex falls apart. As a reminder, the kon is the second-order rate constant of association.
